Measured values taken from paper PMC5975642 (2018).
Values belong to the binder of their own block, whether it stands above or below them.

Legend:
MC4R [1] = target: T1, MC4R (Homo sapiens, UniProt P32245); test: cell competition binding against biotinylated alpha-MSH
MC4R [2] = target: T1, MC4R; test: cell saturation binding

T1 sequence (P32245 whole entry): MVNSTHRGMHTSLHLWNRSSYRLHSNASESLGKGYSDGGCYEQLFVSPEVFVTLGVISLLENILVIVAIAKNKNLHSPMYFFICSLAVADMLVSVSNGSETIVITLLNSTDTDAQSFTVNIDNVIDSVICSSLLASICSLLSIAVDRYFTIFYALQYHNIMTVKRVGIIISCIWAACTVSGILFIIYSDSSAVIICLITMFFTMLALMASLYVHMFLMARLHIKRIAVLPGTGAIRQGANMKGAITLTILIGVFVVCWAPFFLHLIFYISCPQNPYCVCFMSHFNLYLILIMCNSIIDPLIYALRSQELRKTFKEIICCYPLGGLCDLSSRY

Ki (MC4R [1]): 46.3 nM
B1: LCN2 (protein)
chain: QDSTQNLIPAPSLLTVPLQPDFRSDQFRGRWYVVGLAGNAVQKKTEGSFTMYSTIYELQENNSYNVTSILVRDQDQGCRYWIRTFVPSSRAGQFTLGNMHRYPQVQSYNVQVATTDYNQFAMVFFRKTSENKQYFKITLYGRTKELSPELKERFTRFAKSLGLKDDNIIFSVPTDQCIDN

Kd (MC4R [2]): 51.4 nM
B2: LCN2 (protein)
chain: B1 chain
modifications: biotinylated LCN2
